How the values were obtained:
[1] = molecular target: human CD33 antigen (human) (UniProt P20138); assay: immunoreactivity of the radiolabeled HuM195-DOTA conjugate, Preparation 2; format not described
[2] = molecular target: human CD33 antigen (human) (UniProt P20138); assay: immunoreactivity of the radiolabeled HuM195-DOTA conjugate, Preparation 1; format not described

Immunoreactivity (%) [1] [%]	Immunoreactivity (%) [2] [%]	Molecule
82	72.2	^225Ac-HuM195 (HuM195-DOTA conjugate labeled with thorium cow-generated ^225Ac) (antibody)
83	65.4	^225/7Ac-HuM195 (HuM195-DOTA conjugate labeled with linac/accelerator-generated ^225Ac containing a molar excess of ^227Ac) (antibody, INN chains, looked up, V domains shown, DOTA conjugate labelled with 225Ac/227Ac) VH: QVQLVQSGAEVKKPGSSVKVSCKASGYTFTDYNMHWVRQAPGQGLEWIGYIYPYNGGTGYNQKFKSKATITADESTNTAYMELSSLRSEDTAVYYCARGRPAMDYWGQGTLVTVSS VL: DIQMTQSPSSLSASVGDRVTITCRASESVDNYGISFMNWFQQKPGKAPKLLIYAASNQGSGVPSRFSGSGSGTDFTLTISSLQPDDFATYYCQQSKEVPWTFGQGTKVEIK
